In patent publication US20220396632A1 (VERSEAU THERAPEUTICS, published 2022):

T1: Recombinant human PSGL-1(ECD)-hFc1 (R&D Systems, Cat. 3345-PS) (human, UniProt Q14242 42-305)
T1 construct: Bought; Gln42-Val295 counted on AAC50061; also called PSGL-1-Fc; PSGL-1-hFc1 chimera; not shown: human IgG1 Fc, Pro100-Lys330
T1 sequence: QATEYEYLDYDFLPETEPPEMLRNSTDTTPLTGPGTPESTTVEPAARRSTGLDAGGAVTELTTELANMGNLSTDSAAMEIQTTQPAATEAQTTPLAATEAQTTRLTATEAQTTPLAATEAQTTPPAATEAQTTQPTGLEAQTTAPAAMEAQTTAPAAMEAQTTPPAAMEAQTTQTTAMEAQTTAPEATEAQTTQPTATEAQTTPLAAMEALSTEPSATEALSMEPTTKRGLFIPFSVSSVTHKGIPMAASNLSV

T2: Cynomolgus PSGL-1(ECD)-HIS (cynomolgus macaque)
T2 construct: also called Cyno PSGL1-His
T2 chain: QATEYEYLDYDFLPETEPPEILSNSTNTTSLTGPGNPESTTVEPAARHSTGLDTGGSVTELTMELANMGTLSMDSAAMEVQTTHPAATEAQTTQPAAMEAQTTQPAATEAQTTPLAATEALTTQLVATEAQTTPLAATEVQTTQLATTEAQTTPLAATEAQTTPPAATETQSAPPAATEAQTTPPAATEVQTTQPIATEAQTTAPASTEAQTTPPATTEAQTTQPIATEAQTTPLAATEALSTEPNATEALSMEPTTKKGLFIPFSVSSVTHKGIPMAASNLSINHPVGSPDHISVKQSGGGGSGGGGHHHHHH

T3: Biotin sY51 PSGL-1(42-62) peptide (human, sulfotyrosine at Y51; C-terminal Lys-biotin)
T3 construct: also called Y51(SO3) PSGL-1(42-62)
T3 peptide: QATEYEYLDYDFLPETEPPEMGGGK

T4: Scrambled Y46,48,51(SO3) PSGL-1(42-62) biotin peptide (sulfotyrosine at peptide positions 5, 7 and 10; C-terminal Lys-biotin)
T4 construct: also called scrambled sulfated peptide: biotin
T4 peptide: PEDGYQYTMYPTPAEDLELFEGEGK

T5: Biotin PSGL-1(42-62) peptide, unmodified (human, C-terminal Lys-biotin)
T5 construct: Residues 42-62 followed by GGGK-biotin; also called WT; wild-type
T5 peptide: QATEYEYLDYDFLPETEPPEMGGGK

T6: PSGL-1 endogenously expressed on HL-60 cells (UniProt Q14242 42-412)
T6 construct: whole, on cells
T6 sequence (looked up): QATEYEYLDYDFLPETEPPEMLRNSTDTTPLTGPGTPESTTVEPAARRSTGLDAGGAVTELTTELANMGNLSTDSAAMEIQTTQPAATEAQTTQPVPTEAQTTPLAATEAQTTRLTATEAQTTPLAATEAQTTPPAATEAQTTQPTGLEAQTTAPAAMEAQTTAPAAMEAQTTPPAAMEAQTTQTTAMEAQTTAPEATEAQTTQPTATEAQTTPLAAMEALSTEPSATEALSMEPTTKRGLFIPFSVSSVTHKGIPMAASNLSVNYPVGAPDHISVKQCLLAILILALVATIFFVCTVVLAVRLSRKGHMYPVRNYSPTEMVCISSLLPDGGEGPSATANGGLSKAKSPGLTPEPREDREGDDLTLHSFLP


What was measured:
[1] = target: T1, Recombinant human PSGL-1(ECD)-hFc1 (R&D …); experiment: blocking ELISA vs L-selectin-Fc
Protocol: (§1) A typical selectin blocking ELISA assay involved coating high binding half-well plates (Corning, Cat. #3690) with 2.5 ug/mL/25 ul per well of recombinant PSGL-1-Fc protein (R&D Systems, Cat #3345-PS) in PBS, pH 7.4, overnight at 4° C. […] Antibody (test and controls) was serially diluted (25 ul/well) in duplicate in assay buffer (3% BSA in wash buffer) into appropriate wells and the plate incubated for 45 min at 37° C. […] The plate was washed ×3 and HRP-conjugated streptavidin was added in assay buffer [25 ul per well; (Jackson Immunoresearch, Cat. #016-030-084)] and the plate incubated for 45 min at 37° C. […] For each antibody, an IC50 value was determined from sigmoidal fitted titration curves.

[2] = target: T1, Recombinant human PSGL-1(ECD)-hFc1 (R&D …); experiment: blocking ELISA vs P-selectin-Fc
Protocol: as §1

[3] = target: T2, Cynomolgus PSGL-1(ECD)-HIS; experiment: ELISA, plate cyno PSGL-1(ECD)-HIS
Protocol: Antibody binding to plate-immobilized cyno PSGL-1(ECD) was determined either at one concentration (20 nM) or by generating full antibody binding curves (0.003-200 nM). A typical ELISA was performed by overnight coating at 4° C. with 3 ug/mL/25 ul per well of recombinant cyno PSGL-1(ECD) protein in PBS, pH 7.4, in high binding half-well plates (Corning Cat. #3690). […] Anti-PSGL-1 IgG in assay buffer (blocking buffer containing 0.05% tween 20) was added into test and control wells (20 nM/25 ul/well) and the plate incubated for 45 min at 37° C. […] The plate was incubated for 45 min at 37° C., and mAb bound to plate-immobilized target determined at A450 nm using HRP substrate (3,3′,5,5′-tetramethylbenzidine (TMB)). For each antibody, duplicate values were averaged and assay background subtracted.

[4] = target: T1, Recombinant human PSGL-1(ECD)-hFc1 (R&D …); experiment: blocking ELISA vs VISTA-Fc, pH 6.0
[5] = target: T3, Biotin sY51 PSGL-1(42-62) peptide; experiment: ELISA, immobilized biotin peptide
Summary of the method: (§2)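 In this ELISA, half-well high binding plates (Corning Cat. #3690) received 3 ug/mL/25 ul per well of biotin-tagged PSGL-1 peptides covering residues 42 to 62, diluted in PBS, pH 7.4, and coated overnight at 4° C. Duplicate readings for each antibody were averaged and the average assay background was subtracted. PSGL-1 protein or peptide was the positive control.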

[6] = target: T4, Scrambled Y46,48,51(SO3) PSGL-1(42-62) …; experiment: ELISA, immobilized biotin peptide
Summary of the method: as §2

[7] = target: T5, Biotin PSGL-1(42-62) peptide, unmodified; experiment: ELISA, immobilized biotin peptide
Summary of the method: as §2

[8] = target: T6, PSGL-1 endogenously expressed on HL-60 …; experiment: flow cytometry on HL-60 cells
Protocol: (§3) A typical flow cytometry assay was performed by resuspending HL-60 cells in FACS buffer (5% FBS and 0.05% Sodium Azide in PBS, pH 7.2) on ice, pelleting cells by centrifugation at 500×g for 3 min, washing cells with FACS buffer, and then blocking Fc receptors on the cells with Fc block (human TruStain FcX™, BioLegend Cat. #422302) on ice for 10 min. After washing, 50,000 cells/50 ul in FACS buffer was added to each well of a 96-well round bottomed plate (Costar, Cat. #3797), and 50 ul of serially diluted (0.06 nM-1.0 uM) test or isotype control antibody was added into duplicate wells. The plate was covered and incubated on ice for 1 h. After washing, Phycoerythrin (PE) conjugated anti-human IgG secondary antibody (Abcam; Cat. #ab99825) was added to each well and the plate incubated in the dark on ice for 30 min. After washing, the cells were fixed (1% paraformaldhyde).

[9] = target: T6, PSGL-1 endogenously expressed on HL-60 …; experiment: flow cytometry on HL-60 cells; against parent 19L04
Protocol: as §3

Binder	EC50 [8]	HL-60 EC50 (normalized) [9]	also measured
18L13 (antibody, V domains shown, Mouse hybridoma mAb; only variable domains given) VH: EVQLQQSGAELVRPGASVKLSCTASGFNIKDDFMHWVKQRPEQGLEWIGRIDPASGKTEYVPKFQDKATLTADTSSNTAYLQLSSLTSEDTAVYYCARRIAYWGQGTLVTVSA VL: DVVMTQTPLTLSVTIGQPASISCKSSQSLLHSNGKTYLNWLLQRPGQSPKLLIYLVSKLESGLPDRFSGSGSGTDFSLKISRVEAEDLGVYYCLQTTHFPQTFGGGTKLEIK			% max Block [1]: 0%; % max Block [2]: 0%; EC50 [3]: 0.76 nM; % max Block [4]: 0%; EC50 [5]: 0.914 nM; EC50 [6]: 2.63 nM; EC50 [7]: 0.764 nM
19L04.002 (antibody, IgG4, V domains shown, Humanised) VH: QIQLVQSGSELKKPGASVKVSCKASGYTFTTYGMSWVRQAPGQGLKWMGWINTYSGVPTYADDFKGRFVFSLDTSVSTAYLQISSLKAEDTAVYFCARHYYGSHYFDYWGQGTLVTVSS VL: DIVMTQSPDSLAVSLGERATIRCKSSQSLLSSSNQKNYLAWYQQKPGQPPKLLVYFASTRESGVPDRFSGSGSGTDFTLTISSLQAEDVAVYYCQQHYFSPLTFGQGTKLEIK	2.5 nM	1.3 fold	
19L04.008 (antibody, IgG4, V domains shown, Humanised) VH: QIQLVQSGAEVKKPGASVKVSCKASGYTFTTYGMSWVRQAPGQGLKWMGWINTYSGVPTYADDFKGRFTFTLDTSISTAYMELSRLRSDDTAVYFCARHYYGSHYFDYWGQGTLVTVSS VL: DIVMTQSPDSLAVSLGERATLRCKSSQSLLSSSNQKNYLAWYQQKPGQPPKLLVYFASTRESGVPVRFSGSGSGTDFTLTISSLQAEDVAVYFCQQHYFSPLTFGQGTKLEIK	2.9 nM	1.5 fold	
19L04.004 (antibody, IgG4, V domains shown, Humanised) VH: QIQLVQSGAEVKKPGASVKVSCKASGYTFTTYGMSWVRQAPGQGLKWMGWINTYSGVPTYADDFKGRFTFTLDTSISTAYMELSRLRSDDTAVYFCARHYYGSHYFDYWGQGTLVTVSS VL: DIVMTQSPDSLAVSLGERATIRCKSSQSLLSSSNQKNYLAWYQQKPGQPPKLLVYFASTRESGVPDRFSGSGSGTDFTLTISSLQAEDVAVYYCQQHYFSPLTFGQGTKLEIK	8.9 nM	4.5 fold	
19L04.006 (antibody, IgG4, V domains shown, Humanised) VH: QIQLVQSGSELKKPGASVKVSCKASGYTFTTYGMSWVRQAPGQGLKWMGWINTYSGVPTYADDFKGRFVFSLDTSVSTAYLQISSLKAEDTAVYFCARHYYGSHYFDYWGQGTLVTVSS VL: DIVMTQSPDSLAVSLGERATLRCKSSQSLLSSSNQKNYLAWYQQKPGQPPKLLVYFASTRESGVPVRFSGSGSGTDFTLTISSLQAEDVAVYFCQQHYFSPLTFGQGTKLEIK	3.5 nM	1.8 fold	
